Blank lines part the entries; values can stand above or below the substance they belong to.
Tests used:
[1] = biological target: BEAT 2/3 (A): CH2 γ1 - BEAT CH3 (A) γ3; (B): CH2 γ1 - BEAT CH3 (B) γ1 (human); assay: SPR; antibody covalently coupled onto a CM5 sensor chip, FcRn injected; HBS-EP+ adjusted to pH 6; room temperature; steady-state fitting model; regeneration with HBS-EP+ pH 7.4
[2] = biological target: BEAT 2/3 (A): CH2 γ3 - BEAT CH3 (A) γ3; (B): CH2 γ1 - BEAT CH3 (B) γ1 D84.4Q (human); assay: as above
Herceptin IgG (human) [3] = assay: as above
[4] = biological target: BEAT 2/3 (A): CH2 γ3 - BEAT CH3 (A) γ3; (B): CH2 γ1 - BEAT CH3 (B) γ1 (human); assay: as above
[5] = biological target: BEAT 2/3 (A): CH2 γ1 - BEAT CH3 (A) γ3; (B): CH2 γ1 - BEAT CH3 (B) γ1 D84.4Q (human); assay: as above
Herceptin IgG (human) [6] = assay: SPR; antibody captured via Protein A, FcγR1a injected; room temperature; 1:1 Langmuir model with Rmax set to local; regeneration with 10 mM glycine pH 1.5
Herceptin IgG (human) [7] = assay: SPR; antibody covalently coupled onto a CM5 sensor chip, Fc receptor extracellular domain injected; HBS-EP+ running buffer; room temperature; steady-state fitting model; no regeneration
[8] = biological target: BEAT 2/3 (A): CH2 γ1 - BEAT CH3 (A) γ3; (B): CH2 γ1 - BEAT CH3 (B) γ1 (human); assay: as above
[9] = biological target: BEAT 2/3 (A): CH2 γ3 - BEAT CH3 (A) γ3; (B): CH2 γ1 - BEAT CH3 (B) γ1 D84.4Q (human); assay: as above
[10] = biological target: BEAT 2/3 (A): CH2 γ1 - BEAT CH3 (A) γ3; (B): CH2 γ1 - BEAT CH3 (B) γ1 D84.4Q (human); assay: as above
[11] = biological target: KiH (knobs-into-holes) Fc-like chain, second engineered CH3 domain (human); assay: non-reduced SDS-PAGE with scanning densitometry of co-expressed chains (heterodimerization assay); two Fc-like chains co-transfected at a 1:1 ratio into HEK293-EBNA cells; Protein A-purified preparation; 4-12% gel, Coomassie staining; bands below the 49-kDa marker excluded
[12] = biological target: MI (CH3) AG/GA Fc-like chain, GA domain (IgG1 CH3 with positions 85.1 and 86 and their set exchanged for IgA CH3 residues) (human); assay: as above
[13] = biological target: SEED Fc-like chain, the other SEED CH3 domain (human); assay: as above

Substance: FcRn extracellular domain (with beta-2-microglobulin) (from UniProt P55899 24-297; P61769 21-119) (receptor)
- Kd [1]: 708 nM
- Kd [2]: 577 nM
- Kd (Herceptin IgG (human) [3]): 622 nM
- Kd [4]: 543 nM
- Kd [5]: 686 nM

Substance: FcγR2b extracellular domain (from UniProt P31994 43-217) (receptor)
- Kd (Herceptin IgG (human) [7]): 4270 nM

Substance: FcγR3a extracellular domain, variant V176 (from UniProt P08637 17-208) (receptor)
- Kd [8]: 206 nM
- Kd [9]: 238 nM
- Kd (Herceptin IgG (human) [7]): 267 nM
- Kd [10]: 347 nM

Substance: MI (CH3) AG/GA Fc-like chain, AG domain with Trp 81 back mutated to threonine (domain or fragment)
- loss in HD rate against the heterodimer with Trp 81 [12]: 4%

Substance: SEED Fc-like chain, the SEED CH3 domain that has Trp 81 (domain or fragment)
- heterodimer content [13]: 83%

Further lines, results first:

- Kd (Herceptin IgG (human) [6]): 0.138 nM
Substance: FcγR1a extracellular domain (from UniProt P12314 16-292) (receptor)

- Kd (Herceptin IgG (human) [7]): 2000 nM
Substance: FcγR2a extracellular domain, variant H167 (from UniProt P12318 34-217) (receptor)

- heterodimer content [11]: 67%
Substance: KiH (knobs-into-holes) Fc-like chain, first engineered CH3 domain (domain or fragment)

- loss in HD rate against the heterodimer with Trp 81 [13]: 20%
Substance: SEED Fc-like chain with Trp 81 back mutated to threonine (domain or fragment)
